For the assay, the target named is Clostridium difficile toxin A (C. difficile, UniProt P16154 1-2710). Nature of the assay: SPR.

Here are results for three molecules from publication PMC3227653 (2011).

Broadly, the koff is the first-order rate constant of dissociation.

B1: pepsin-treated A26.8m (VHH)
VHH: QVKLEESGGGLVQAGGSLRLSCAASERTFSRYPVAWFRQAPGAEREFVCVISSTGTSTYYADSVKGRFTCSRDNAKVTVYLQMNNLKREDTAVYFCAVNSQRTRLQDPNEYDYWGQGTQVTVSS
Consider B1, for which the koff turned out to be 0.019 s⁻¹.

B2: pepsin-treated A5.1m (VHH)
VHH: QVKLEESGGGLVQAGGSLRLSCAASGRTFSMYRMGWFRQAPGKEREFVCVITRNGSSTYYADSVKGRFTCSRDNAKNTVYLQMNSLKPEDTALYYCAATSGSSYLDAAHVYDYWGQGTQVTVSS
As for B2, the koff was determined as 0.013 s⁻¹.

B3: pepsin-treated A4.2m (VHH)
VHH: QVKLEESGGGLVQAGGSLRLSCAASGRTFNTLSMGWFRQAPGKEREFVCAVSRSGGSTYYADSVKGRFTCSRDNAKNTVYLQMNSLKPEDTAVYYCAAAATKSNTTAYRLSFDYWGQGTQVTVSS
Regarding B3, the koff is 0.016 s⁻¹.
